Source: PMC10902354, “Deficiency in PHD2-mediated hydroxylation of HIF2α underlies Pacak-Zhuang syndrome” (Communications Biology, 2024)
Peptide text beside a SMILES is read from it.

Columns and labels:
[1] = target: T1, PHD2 (prolyl-hydroxylase domain, residues 181–426) (Homo sapiens, UniProt Q9GZT9); assay: Microscale thermophoresis (MST) binding of HIFα-CODD peptides to the catalytic domain of PHD2; conditions: MST; for PHD2 affinity / Kd compared with another peptide (in words): with NOG; for Kd (MST-determined PHD2/HIFα-CODD complex dissociation constant): 25 nM Alexa 647-labeled PHD2, Tris–HCl with NOG (1 mM NOG, 10 µM FeSO4, 5 mg/ml BSA in 2x MST Buffer pH 7.5), peptide in Tris pH 8.0, room temperature, 10 min incubation, 1:1 Kd model, triplicate measurements, highest concentration omitted for Y532H and P531A (aggregation); for Kd (Fit Results, Fit Model Kd): target WT-PHD2(181-426), TargetConcentration 2.5e-8, ligand HIF2a-CODD peptide, MST-Power Medium, Excitation-Power 20 Nano - RED, hot region 19 to 20, unit of Kd not printed (doses of the same sheet are in M), Fig. 1c source data; for Kd relative to WT HIF2α-CODD: fold of the HIF2α WT Kd
T1 construct: encodes for His6-PHD2 (prolyl-hydroxylase domain, residues 181–426); His6 (N, cleaved yes); made in house; host or cells: E. coli BL21(DE3)
T1 sequence (Q9GZT9 181-426): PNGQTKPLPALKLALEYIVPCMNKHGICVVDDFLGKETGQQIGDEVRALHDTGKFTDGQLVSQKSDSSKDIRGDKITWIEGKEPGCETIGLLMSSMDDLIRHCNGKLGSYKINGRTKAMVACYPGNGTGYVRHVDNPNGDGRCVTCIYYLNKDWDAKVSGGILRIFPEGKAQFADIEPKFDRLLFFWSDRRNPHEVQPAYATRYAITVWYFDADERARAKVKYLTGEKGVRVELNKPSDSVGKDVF
Experimental: To determine if there is a direct effect of HIF2α mutations on PHD2 binding, we devised a quantitative method for determining the dissociation constant (Kd) of the HIF2α-CODD peptides and the catalytic domain of PHD2 using microscale thermophoresis (MST)[13],[14] in the presence of the PHD inhibitor n-oxalylglycine (NOG) to inhibit reaction turnover.
PHD2 was purified via a previously described but modified procedure[4],[30]. […] Cells were grown to an OD600 of 0.8 at 37 °C and expression of His6-PHD2 was induced with a final concentration of 0.5 mM IPTG. Cells were grown for an additional 3 h post-induction at 37 °C and harvested via centrifugation. Cell pellets were either used immediately for purification or stored at −80 °C for later use. Cell pellets were resuspended in Lysis Buffer (50 mM Tris–HCl pH 7.9, 500 mM NaCl, 5 mM Imidazole) containing 1x SigmaFast protease inhibitor cocktail (Sigma-Aldrich) and lysed with 3 passes through an Emulsiflex-C3 cell disruptor (Avestin) at 20-30 kPSI. […] Clarified lysates were applied to a 2 ml Ni-NTA (Thermo Scientific) column pre-equilibrated with Lysis Buffer. The beads were washed with 10 ml Lysis buffer and 2 × 30 ml of Wash Buffer (50 mM Tris–HCl pH 7.9, 500 mM NaCl, 30 mM Imidazole). His6-PHD2 was eluted by applying 10 ml Elution Buffer (50 mM Tris–HCl pH 7.9, 500 mM NaCl, 1 M Imidazole) to the column. Ni-NTA purified His6-PHD2 was dialyzed using a 10 kDa cut-off dialysis membrane against 2 L of Dialysis Buffer (50 mM Tris–HCl pH 7.5) for 4 h at 4 °C. […] Dialysis and thrombin cleavage were allowed to continue overnight at 4 °C. Thrombin-cleaved PHD2 was collected and applied to a 2 ml Ni-NTA column pre-equilibrated with Dialysis Buffer to remove uncleaved protein and cleaved His6 tags. The flow-through was collected and the beads were washed with 10 ml of Dialysis Buffer supplemented with 5 mM imidazole. The 5 mM imidazole eluate was pooled with the flow through and concentrated with an Amicon 10 kDa cut-off centrifugal concentrator (Millipore) to a volume of ~600 µl. The concentrated PHD2 was then applied to a Superdex 75 Increase 10/300 GL column (Cytiva) equilibrated with Dialysis Buffer or Labeling Buffer (50 mM HEPES pH 7.5, 150 mM NaCl) depending on the intended use of the sample. Eluted fractions containing PHD2 were collected and pooled. For the His6-PHD2 used in the indirect hydroxylation assay, no thrombin was added during dialysis steps therefore the His6-tag was not removed and the subsequent passage of the sample through Ni-NTA beads to remove His6-tags was not performed. Otherwise, the purification protocol for His6-PHD2 is the same as thrombin-cleaved PHD2. All purification steps were analyzed by SDS–PAGE and the Superdex 75 Increase chromatogram was used to assess size and aggregation, see Supplementary Fig. 5 for a representative purification assessment.
Labeling was conducted at room temperature for 1 h in the dark. Excess dye was then removed first by the passage of the sample through a PD-10 desalting column containing Sephadex G-25 resin (Cytiva) equilibrated with Dialysis Buffer and then any remaining excess dye was removed via repeated 10-fold dilution in Dialysis Buffer and subsequent concentration in an Amicon 10 kDa cut off centrifugal filter until the dye could no longer be detected in the concentrator flow through by Absorbance at 650 nm.
MST measurements were taken using a Monolith NT.115 (Nanotemper Technologies) at room temperature using standard MST capillaries (Nanotemper Technologies). […] For each HIFα-CODD peptide, ~1 mg dry weight of peptide was dissolved in 200 µl of 50 mM Tris–HCl pH 8.0 and concentrations were measured using UV absorbance at 280 nm for most peptides and BCA assay (Thermo Scientific) for Y532C and Y532H peptides using known concentrations of the WT HIF2α-CODD peptide to create a standard curve.

[2] = target: T2, Alexa 647 labeled PHD2 (catalytic / prolyl-hydroxylase domain, residues 181-426) (human, UniProt Q9GZT9 181-426, Alexa Fluor 647 N-hydroxysuccinimide ester dye, 1-2 dye molecules per protein molecule); assay: MST; 25 nM Alexa 647 labeled PHD2, unlabeled peptide in 16 two-fold dilutions; room temperature; MST Buffer 50 mM Tris-HCl pH 7.5, 1 mM NOG, 10 µM FeSO4, 5 mg/ml BSA mixed 1:1 with peptide in 50 mM Tris-HCl pH 8.0; 1:1 Kd model; triplicate; conditions: both partners purified
T2 construct: PHD2, prolyl-hydroxylase domain (catalytic domain), residues 181-426, from pET-46-HIS6-PHD2; Same construct as m2, dye-labeled for MST; also called PHD2-647; source: E. coli BL21(DE3), purified (Ni-NTA, thrombin cleavage, Superdex 75), labeled with Alexa Fluor 647 NHS ester
T2 sequence (Q9GZT9 181-426): as above

HIF2α Y532C: Class 1 mutant HIF2α-CODD peptide (Ac-ELDLETLAPCIPMDGEDFQL-NH2)
PHD2 affinity / Kd compared with another peptide (in words) [1]: strongly detrimental to the interaction of PHD2 with HIF2α-CODD

HIF2α L529P: Class 1 mutant HIF2α-CODD peptide (Ac-ELDLETPAPYIPMDGEDFQL-NH2)
Kd (MST-determined PHD2/HIFα-CODD complex dissociation constant) [1]: No binding | Kd (Fit Results, Fit Model Kd) [1]: 0.01043

HIF2α P531S: Class 1 mutant HIF2α-CODD peptide (Ac-ELDLETLASYIPMDGEDFQL-NH2)
Kd (MST-determined PHD2/HIFα-CODD complex dissociation constant) [1]: No binding | Kd (Fit Results, Fit Model Kd) [1]: 0.01316

CC[C@H](C)[C@H](NC(=O)[C@H](Cc1ccc(O)cc1)NC(=O)[C@@H]1CCCN1C(=O)[C@H](C)NC(=O)[C@H](CC(C)C)NC(=O)[C@H](CCSC)NC(=O)[C@H](CCC(=O)O)NC(=O)[C@H](CC(C)C)NC(=O)[C@H](CC(=O)O)NC(=O)[C@H](CC(C)C)NC(=O)[C@H](CCC(=O)O)NC(C)=O)C(=O)N1CCC[C@H]1C(=O)N[C@@H](CCSC)C(=O)N[C@@H](CC(=O)O)C(=O)NCC(=O)N[C@@H](CCC(=O)O)C(=O)N[C@@H](CC(=O)O)C(=O)N[C@@H](Cc1ccccc1)C(=O)N[C@@H](CCC(N)=O)C(=O)N[C@@H](CC(C)C)C(N)=O [HIF2α T528M] (Ac-ELDLEMLAPYIPMDGEDFQL-NH2)
PHD2 affinity / Kd compared with another peptide (in words) [1]: intermediate affinity

HIF2α P531L: Class 1 mutant HIF2α-CODD peptide (Ac-ELDLETLALYIPMDGEDFQL-NH2)
Kd (MST-determined PHD2/HIFα-CODD complex dissociation constant) [1]: No binding

CC[C@H](C)[C@H](NC(=O)[C@H](Cc1ccc(O)cc1)NC(=O)[C@@H]1CCCN1C(=O)[C@H](C)NC(=O)[C@H](CC(C)C)NC(=O)[C@@H](NC(=O)[C@H](CCC(=O)O)NC(=O)[C@H](CC(C)C)NC(=O)[C@H](CC(=O)O)NC(=O)[C@H](CC(C)C)NC(=O)[C@H](CCC(=O)O)NC(C)=O)[C@@H](C)O)C(=O)N1CCC[C@H]1C(=O)N[C@@H](CCSC)C(=O)N[C@@H](CC(=O)O)C(=O)N[C@@H](Cc1c[nH]c2ccccc12)C(=O)N[C@@H](CCC(=O)O)C(=O)N[C@@H](CC(=O)O)C(=O)N[C@@H](Cc1ccccc1)C(=O)N[C@@H](CCC(N)=O)C(=O)N[C@@H](CC(C)C)C(N)=O [HIF2α G537W] (Ac-ELDLETLAPYIPMDWEDFQL-NH2)
Kd relative to WT HIF2α-CODD [1]: 2.4 × WT

CC[C@H](C)[C@H](NC(=O)[C@H](Cc1ccc(O)cc1)NC(=O)[C@@H]1CCCN1C(=O)[C@@H](NC(=O)[C@H](CC(C)C)NC(=O)[C@@H](NC(=O)[C@H](CCC(=O)O)NC(=O)[C@H](CC(C)C)NC(=O)[C@H](CC(=O)O)NC(=O)[C@H](CC(C)C)NC(=O)[C@H](CCC(=O)O)NC(C)=O)[C@@H](C)O)[C@@H](C)O)C(=O)N1CCC[C@H]1C(=O)N[C@@H](CCSC)C(=O)N[C@@H](CC(=O)O)C(=O)NCC(=O)N[C@@H](CCC(=O)O)C(=O)N[C@@H](CC(=O)O)C(=O)N[C@@H](Cc1ccccc1)C(=O)N[C@@H](CCC(N)=O)C(=O)N[C@@H](CC(C)C)C(N)=O [HIF2α A530T]
PHD2 affinity / Kd compared with another peptide (in words) [1]: significant effect on PHD2 binding affinity

CC[C@H](C)[C@H](NC(=O)[C@H](Cc1c[nH]cn1)NC(=O)[C@@H]1CCCN1C(=O)[C@H](C)NC(=O)[C@H](CC(C)C)NC(=O)[C@@H](NC(=O)[C@H](CCC(=O)O)NC(=O)[C@H](CC(C)C)NC(=O)[C@H](CC(=O)O)NC(=O)[C@H](CC(C)C)NC(=O)[C@H](CCC(=O)O)NC(C)=O)[C@@H](C)O)C(=O)N1CCC[C@H]1C(=O)N[C@@H](CCSC)C(=O)N[C@@H](CC(=O)O)C(=O)NCC(=O)N[C@@H](CCC(=O)O)C(=O)N[C@@H](CC(=O)O)C(=O)N[C@@H](Cc1ccccc1)C(=O)N[C@@H](CCC(N)=O)C(=O)N[C@@H](CC(C)C)C(N)=O [HIF2α Y532H] (Ac-ELDLETLAPHIPMDGEDFQL-NH2)
PHD2 affinity / Kd compared with another peptide (in words) [1]: near wild-type affinity | Kd relative to WT HIF2α-CODD [1]: 1.2 × WT

B1: HIF2α-CODD ΔG537 peptide (peptide, UniProt Q99814 523-542, looked up)
peptide: Ac-ELDLETLAPYIPMDEDFQL-NH2
notes: HIF2α (EPAS1) CODD peptide, human, as m3 without G537; also called HIF2α ΔG537; source: synthetic peptide (Genscript, ≥95% purity)
Kd [2]: 13 ± 2 µM

B2: HIF2α-CODD A530T peptide (peptide, UniProt Q99814 523-542, looked up)
peptide: Ac-ELDLETLTPYIPMDGEDFQL-NH2
notes: HIF2α (EPAS1) CODD peptide, human, as m3 with the disease mutation A530T (Class 1); also called HIF2α A530T; source: synthetic peptide (Genscript, ≥95% purity)
Kd [2]: 627 ± 126 µM

B3: HIF2α-CODD T528M peptide (peptide, UniProt Q99814 523-542, looked up)
peptide: Ac-ELDLEMLAPYIPMDGEDFQL-NH2
notes: HIF2α (EPAS1) CODD peptide, human, as m3 with T528M; also called HIF2α T528M; source: synthetic peptide (Genscript, ≥95% purity)
Kd [2]: 23 ± 2 µM
